Experiments:
[1] = molecular target: Fas death receptor (mouse) (UniProt P25446); test: cell-based or functional assay
recombinant human GRX1 = recombinant human GRX1 (UniProt P35754)
Sequence of UniProt P35754 (P35754 whole entry): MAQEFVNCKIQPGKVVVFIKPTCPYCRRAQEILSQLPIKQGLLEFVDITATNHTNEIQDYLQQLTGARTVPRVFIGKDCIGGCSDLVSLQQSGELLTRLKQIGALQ

Sequence of UniProt P25446 (P25446 22-327): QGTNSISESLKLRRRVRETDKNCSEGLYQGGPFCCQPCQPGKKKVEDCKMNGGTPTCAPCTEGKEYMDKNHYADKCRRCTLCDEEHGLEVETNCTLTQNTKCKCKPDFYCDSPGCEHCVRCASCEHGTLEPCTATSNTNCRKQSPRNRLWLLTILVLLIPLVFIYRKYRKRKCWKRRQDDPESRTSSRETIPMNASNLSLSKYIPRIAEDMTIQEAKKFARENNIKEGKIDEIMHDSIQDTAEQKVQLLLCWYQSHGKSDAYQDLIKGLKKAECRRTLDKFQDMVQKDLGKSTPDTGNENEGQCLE

Fas Ligand
catalytic activity of GRX1 in lung epithelial cells [1]: 50 % decrease

recombinant Caspase 3
cleavage of GRX1 (Western Blotting) (recombinant human GRX1): Treatment of recombinant human GRX1 with recombinant Caspase 8 or 3 results in cleavage of GRX1

recombinant Caspase 8
cleavage of GRX1 (Western Blotting) (recombinant human GRX1): Treatment of recombinant human GRX1 with recombinant Caspase 8 or 3 results in cleavage of GRX1

Source: patent publication US20140140975A1
